Results reported in patent publication US20190010203A1 (ADEPTHERA, published 2019).
Non-standard residues stand in square brackets, D forms with d. No end group written: not given here. *: point of attachment. Palmitoyl = CCCCCCCCCCCCCCCC(=O)*; AEEEA = NCCOCCOCCOCC(=O)O

B1: SEQ ID NO: 38 (peptide)
peptide: Palmitoyl-KTKKTLRTGCRFGTCTVQKLAHQIYQFTDKDKDNSAPVDPSSPHSY-NH2
modifications: not fully specified; printed as Pal-KTKKTLRTGCRFGTCTVQKLAHQIYQFTDKDKDNSAPVDPSSPHSY-NH2; ends and bridges not checked
B2: SEQ ID NO: 73 (peptide)
peptide: KGCRFGTCTVQKLAHQIYQFTDKDKDNVAPRSKISPQGY
modifications: N-terminal palmitoyl (Pal); palmitoyl on Lys 1 side chain, K(Pal); C-terminal amide
B3: SEQ ID NO: 40 (peptide)
peptide: Palmitoyl-KTKKTLRTGCRFGTCTVQKLAHQIYQFTDKDKDNVAPVDPSSPHSY-NH2
modifications: not fully specified; printed as Pal-KTKKTLRTGCRFGTCTVQKLAHQIYQFTDKDKDNVAPVDPSSPHSY-NH2; ends and bridges not checked

Target: T1, CLR/RAMP1 receptor (UniProt Q16602 23-461; O60894 27-148, limits assumed)
T1 sequence (Q16602 23-461 limits assumed, chain 1 of 2): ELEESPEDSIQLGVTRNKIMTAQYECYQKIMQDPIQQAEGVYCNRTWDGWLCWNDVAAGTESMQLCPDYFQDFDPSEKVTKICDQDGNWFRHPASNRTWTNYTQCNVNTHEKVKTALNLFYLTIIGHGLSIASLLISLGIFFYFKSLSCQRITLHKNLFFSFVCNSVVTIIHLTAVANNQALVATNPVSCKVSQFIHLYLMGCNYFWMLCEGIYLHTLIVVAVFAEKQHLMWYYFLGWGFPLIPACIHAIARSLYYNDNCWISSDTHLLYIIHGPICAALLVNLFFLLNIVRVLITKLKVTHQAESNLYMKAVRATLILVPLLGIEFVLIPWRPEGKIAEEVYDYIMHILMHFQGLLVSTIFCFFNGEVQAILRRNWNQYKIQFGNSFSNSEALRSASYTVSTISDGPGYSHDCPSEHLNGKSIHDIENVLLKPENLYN
T1 sequence (O60894 27-148 limits assumed, chain 2 of 2): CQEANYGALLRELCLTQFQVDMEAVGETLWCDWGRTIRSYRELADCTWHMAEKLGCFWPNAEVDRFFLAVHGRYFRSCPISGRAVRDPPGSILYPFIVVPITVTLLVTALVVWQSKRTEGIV
Test: cell-based or functional assay

EC50 (nM), CLR/RAMP1 cAMP assay | Max Activity % of positive control, CLR/RAMP1 cAMP assay | Binder
234 nM | – | Ac-K(Palmitoyl)GCRFGTCTVQKLAHQIYQFTDKDKDNVAPRSKSSPHSY-NH2 (ends and bridges not checked) [SEQ ID NO: 65]
0.3 nM | – | Ac-K(Palmitoyl)GCRFGTCTVQKLAHQIYQFTPAGRQDSAPVDPSSPHSY-NH2 (ends and bridges not checked) [SEQ ID NO: 33]
– | 69 % of positive control | miniPEG-K(Palmitoyl)TKKTLRTGCRFGTCTVQKLAHQIYQFTDKDKDNVAPRSKISPQGY-NH2 (ends and bridges not checked) [SEQ ID NO: 70]
0.5 nM | – | B1
0.4 nM | – | Ac-TK(Palmitoyl)KTLRTGCRFGTCTVQKLAHQIYQFTDKDKDNVAPVDPSSPHSY-NH2 (ends and bridges not checked) [SEQ ID NO: 41]
224 nM | – | Ac-VGCRFGTCTVQKLAHQIYQFTDKDKDNSAPVDPSSPHSY-NH2 (ends and bridges not checked) [SEQ ID NO: 56]
43 nM | – | Palmitoyl-KGCRFGTCTVQKLAHQIYQFTDKDAPVDPSSPHSY-NH2 (ends and bridges not checked) [SEQ ID NO: 110]
31 nM | – | Ac-KGCRFGTCTVQKLAHQIYQFTDKDKDNSAPVDPSSPHSY-NH2 (ends and bridges not checked) [SEQ ID NO: 59]
0.4 nM | – | Palmitoyl-KGCRFGTCTVQKLAHQIYQFTDKDKDNSAPVDPSSPHSY-NH2 (ends and bridges not checked) [SEQ ID NO: 30]
0.6 nM | – | Palmitoyl-KGCRFGTCTVQKLAHQIYQFTDKGRQDSAPVDPSSPHSY-NH2 (ends and bridges not checked) [SEQ ID NO: 36]
– | 69 % of positive control | Ac-FGCRFGTCTVQKLAHQIYQFTDKDKDNVAPRSKISPQGY-NH2 (cysteine pairing not given here) [human ADM, SEQ ID NO: 53]
– | 65 % of positive control | miniPEG-K(Palmitoyl)GCRFGTCTVQKLAHQIYQFTDKDKDNVAPVDPSSPHSY-NH2 (cysteine pairing not given here) [SEQ ID NO: 50]
0.8 nM | – | Palmitoyl-KGCRFGTCTVQKLAHQIYQFTDKDKQDSAPVDPSSPHSY-NH2 (ends and bridges not checked) [SEQ ID NO: 35]
0.2 nM | – | Palmitoyl-KGCRFGTCTVQKLAHQIYQFTDKDKDNVAPVDPSSPHSY-NH2 (ends and bridges not checked) [SEQ ID NO: 34]
– | 2 % of positive control | [AEEEA]K(Palmitoyl)GCRFGTCTVQKLAHLWQLMGPAGRQDSAPVDPSSPHSY-NH2 (ends and bridges not checked) [SEQ ID NO: 62]
34 nM | – | B2
771 nM | – | Ac-KGCRFGTCTVQKLAHQIYQFTDKDSAPVDPSSPHSY-NH2 (ends and bridges not checked) [SEQ ID NO: 93]
0.1 nM | – | Palmitoyl-KCRFGTCTVQKLAHQIYQFTDKDKDNSAPVDPSSPHSY-NH2 (ends and bridges not checked) [SEQ ID NO: 44]
– | 85 % of positive control | miniPEG-K(Palmitoyl)GCRFGTCTVQKLAHQIYQFTDKDKSAPVDPSSPHSY-NH2 (ends and bridges not checked) [SEQ ID NO: 47]
2 nM | – | B3
0.2 nM | – | Ac-TK(Palmitoyl)KTLRTGCRFGTCTVQKLAHQIYQFTDKDKDNSAPVDPSSPHSY-NH2 (ends and bridges not checked) [SEQ ID NO: 39]
0.8 nM | – | Palmitoyl-KGCRFGTCTVQKLAHQIYQFTPAGRQDSAPVDPSSPHSY-NH2 (ends and bridges not checked) [SEQ ID NO: 31]
0.1 nM | – | Palmitoyl-GCRFGTCTVQKLAHQIYQFTDKDKDNSAPVDPSSPHSY-NH2 (ends and bridges not checked) [SEQ ID NO: 45]
– | 67 % of positive control | miniPEG-K(Palmitoyl)GCRFGTCTVQKLAHQIYQFTDKDKDNVDPSSPHSY-NH2 (cysteine pairing not given here) [SEQ ID NO: 94]
0.5 nM | 39 % of positive control | [AEEEA]K(Palmitoyl)CRFGTCTVQKLAHQIYQFTDKDKDNSAPVDPSSPHSY-NH2 (ends and bridges not checked) [SEQ ID NO: 43]
16 nM | – | Ac-KGCRFGTCTVQKLAHQIYQFTDKDKDNVAPVDPSSPHSY-NH2 (ends and bridges not checked) [SEQ ID NO: 60]
909 nM | – | Ac-VGCRFGTCTVQKLAHQIYQFTPAGRQDSAPVDPSSPHSY-NH2 (ends and bridges not checked) [SEQ ID NO: 57]

Target: T2, CLR/RAMP2 receptor (UniProt Q16602 23-461; O60895 43-175, limits assumed)
T2 sequence (Q16602 23-461 limits assumed, chain 1 of 2): as the sequence (Q16602 23-461 limits assumed, chain 1 of 2) above
T2 sequence (O60895 43-175 limits assumed, chain 2 of 2): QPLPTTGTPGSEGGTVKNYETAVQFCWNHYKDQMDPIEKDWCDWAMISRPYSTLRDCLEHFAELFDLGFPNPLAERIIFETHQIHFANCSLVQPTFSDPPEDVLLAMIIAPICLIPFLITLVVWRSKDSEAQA
Test: cell-based or functional assay

EC50 (nM), CLR/RAMP2 arrestin assay | Max Activity % of positive control, CLR/RAMP2 arrestin assay | Binder
0.2 nM | – | miniPEG-TK(Palmitoyl)KTLRTGCRFGTCTVQKLAHQIYQFTDKDKDNVAPVDPSSPHSY-NH2 (cysteine pairing not given here) [SEQ ID NO: 42]
0.4 nM | – | Ac-K(Palmitoyl)GCRFGTCTVQKLAHQIYQFTPAGRQDSAPVDPSSPHSY-NH2 (ends and bridges not checked) [SEQ ID NO: 33]
– | 68 % of positive control | miniPEG-K(Palmitoyl)TKKTLRTGCRFGTCTVQKLAHQIYQFTDKDKDNVAPRSKISPQGY-NH2 (ends and bridges not checked) [SEQ ID NO: 70]
0.3 nM | – | [AEEEA]K(Palmitoyl)GCRFGTCTVQKLAHQIYQFTDKDKQDSAPVDPSSPHSY-NH2 (ends and bridges not checked) [SEQ ID NO: 51]
0.7 nM | – | B1
0.9 nM | – | Ac-TK(Palmitoyl)KTLRTGCRFGTCTVQKLAHQIYQFTDKDKDNVAPVDPSSPHSY-NH2 (ends and bridges not checked) [SEQ ID NO: 41]
17 nM | – | Ac-VGCRFGTCTVQKLAHQIYQFTDKDKDNSAPVDPSSPHSY-NH2 (ends and bridges not checked) [SEQ ID NO: 56]
6.4 nM | – | Palmitoyl-KGCRFGTCTVQKLAHQIYQFTDKDAPVDPSSPHSY-NH2 (ends and bridges not checked) [SEQ ID NO: 110]
0.5 nM | 104 % of positive control | [AEEEA]K(Palmitoyl)GCRFGTCTVQKLAHQIYQFTDKDKDSAPVDPSSPHSY-NH2 (ends and bridges not checked) [SEQ ID NO: 46]
18 nM | – | Ac-KGCRFGTCTVQKLAHQIYQFTDKDKDNSAPVDPSSPHSY-NH2 (ends and bridges not checked) [SEQ ID NO: 59]
0.6 nM | – | Palmitoyl-KGCRFGTCTVQKLAHQIYQFTDKDKDNSAPVDPSSPHSY-NH2 (ends and bridges not checked) [SEQ ID NO: 30]
0.9 nM | – | Palmitoyl-KGCRFGTCTVQKLAHQIYQFTDKGRQDSAPVDPSSPHSY-NH2 (ends and bridges not checked) [SEQ ID NO: 36]
– | 102 % of positive control | Ac-FGCRFGTCTVQKLAHQIYQFTDKDKDNVAPRSKISPQGY-NH2 (cysteine pairing not given here) [human ADM, SEQ ID NO: 53]
– | 87 % of positive control | miniPEG-K(Palmitoyl)GCRFGTCTVQKLAHQIYQFTDKDKDNVAPVDPSSPHSY-NH2 (cysteine pairing not given here) [SEQ ID NO: 50]
1 nM | – | Palmitoyl-KGCRFGTCTVQKLAHQIYQFTDKDKQDSAPVDPSSPHSY-NH2 (ends and bridges not checked) [SEQ ID NO: 35]
0.7 nM | – | Palmitoyl-KGCRFGTCTVQKLAHQIYQFTDKDKDNVAPVDPSSPHSY-NH2 (ends and bridges not checked) [SEQ ID NO: 34]
49 nM | – | B2
17 nM | – | Ac-KGCRFGTCTVQKLAHQIYQFTDKDSAPVDPSSPHSY-NH2 (ends and bridges not checked) [SEQ ID NO: 93]
0.2 nM | – | Palmitoyl-KCRFGTCTVQKLAHQIYQFTDKDKDNSAPVDPSSPHSY-NH2 (ends and bridges not checked) [SEQ ID NO: 44]
0.4 nM | 64 % of positive control | miniPEG-K(Palmitoyl)GCRFGTCTVQKLAHQIYQFTDKDKSAPVDPSSPHSY-NH2 (ends and bridges not checked) [SEQ ID NO: 47]
1 nM | – | B3
0.5 nM | – | Ac-TK(Palmitoyl)KTLRTGCRFGTCTVQKLAHQIYQFTDKDKDNSAPVDPSSPHSY-NH2 (ends and bridges not checked) [SEQ ID NO: 39]
0.9 nM | – | Palmitoyl-KGCRFGTCTVQKLAHQIYQFTPAGRQDSAPVDPSSPHSY-NH2 (ends and bridges not checked) [SEQ ID NO: 31]
0.3 nM | – | Palmitoyl-GCRFGTCTVQKLAHQIYQFTDKDKDNSAPVDPSSPHSY-NH2 (ends and bridges not checked) [SEQ ID NO: 45]
– | 82 % of positive control | miniPEG-K(Palmitoyl)GCRFGTCTVQKLAHQIYQFTDKDKDNVDPSSPHSY-NH2 (cysteine pairing not given here) [SEQ ID NO: 94]
0.2 nM | 30 % of positive control | [AEEEA]K(Palmitoyl)CRFGTCTVQKLAHQIYQFTDKDKDNSAPVDPSSPHSY-NH2 (ends and bridges not checked) [SEQ ID NO: 43]
3 nM | – | Ac-KGCRFGTCTVQKLAHQIYQFTDKDKDNVAPVDPSSPHSY-NH2 (ends and bridges not checked) [SEQ ID NO: 60]
149 nM | – | Ac-VGCRFGTCTVQKLAHQIYQFTPAGRQDSAPVDPSSPHSY-NH2 (ends and bridges not checked) [SEQ ID NO: 57]

Target: T1, CLR/RAMP1 receptor
Test: cell-based or functional assay
Remark: another data set of the same source

IC50 (nM), CGRP-stimulated CLR/RAMP1 cAMP assay | Binder
7 nM | Palmitoyl-KVQKLAHQIYQFTDKSAPVDPSSPHSY-NH2 [SEQ ID NO: 125]
1120 nM | Ac-TVQKLAHQIYQFTDKDKDNSAPVDPSSPHSY-NH2 [SEQ ID NO: 76]
9.9 nM | Palmitoyl-TVQKLAHQIYQFTDKDKDNSAPVDPSSPHSY-NH2 [SEQ ID NO: 77]

Target: T2, CLR/RAMP2 receptor
Test: cell-based or functional assay
Remark: another data set of the same source

IC50 (nM), ADM-stimulated CLR/RAMP2 arrestin assay | Binder
7.1 nM | Palmitoyl-KVQKLAHQIYQFTDKSAPVDPSSPHSY-NH2 [SEQ ID NO: 125]
289 nM | Ac-TVQKLAHQIYQFTDKDKDNSAPVDPSSPHSY-NH2 [SEQ ID NO: 76]
47 nM | Palmitoyl-TVQKLAHQIYQFTDKDKDNSAPVDPSSPHSY-NH2 [SEQ ID NO: 77]
